KR20240034671A (dated 2024)

Target: T1, human PTK7-Ig3-4-His (human, UniProt Q13308 221-409, limits assumed)
T1 construct: domain: Ig3-4; Made from the hPTK7-Ig1-4-His construct by DpnI-mediated deletion mutagenesis; expressed in HEK293 cells; also called hPTK7-Ig3-4-His; STK7-lg3-4-His [sic]
T1 sequence: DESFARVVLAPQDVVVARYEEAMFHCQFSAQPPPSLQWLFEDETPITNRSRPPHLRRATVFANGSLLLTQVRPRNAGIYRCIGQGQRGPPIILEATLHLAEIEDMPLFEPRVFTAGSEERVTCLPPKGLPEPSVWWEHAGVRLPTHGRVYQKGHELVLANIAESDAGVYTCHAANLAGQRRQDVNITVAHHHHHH
Assay: Ni-NTA pull-down of His-tagged construct incubated with mAb at 1:1 molar ratio, western blot

B1: anti-PTK7 mAb-52 (antibody, V domains shown)
VH: EVQLQQSGAELVKPGASVKLSCTASGFNIEDTYIHWVKQRPEQGLEWIGRIDPANGNDKYDPKFQGKATITADTSSNTAYLQLSSLTSEDTAVYYCARGDANYGSYWGQGTLVTVSA
VL: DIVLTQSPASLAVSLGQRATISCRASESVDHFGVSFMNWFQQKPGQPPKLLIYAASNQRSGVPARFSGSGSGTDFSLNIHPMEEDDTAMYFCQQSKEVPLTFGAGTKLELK
notes: Mouse monoclonal antibody from a hybridoma raised against purified human sPTK7, purified from ascites
**Q.** Does B1 bind?
**A.** no binding
